This is an account of results in the RNAGym collection of RNA variant scans (doi:10.7554/elife.90254).

B1: LINE1-full (parent)
chain: UACGUAGGUGGUUUUCCCCUGAUAGUGCUAAGGGGGCCUGGAAGUUUGGACUGGGCAGAGCUCAACACAGCGUGGCAAAGUGGCUGUGGCUAGACUGCCUCUCUGGAUUCCUCGUCACUCAGCAGGGCAUCUCUGAGAGAAAUGCC

In this data set the parent is B1. Kind of data set: self-cleavage, relative activity (ratio to wild type); higher = more cleavage; in vitro, sequencing; the parent is a self-cleaving ribozyme.
On to UACGUAGGUGGUUUUCCCCUGAUAGUGCUAAGGGGGCCUGGAAGUUUGGACUGGGCAGAGCUCAACACAGCGUGGCAAAGUGGCUGUGGCUAGACUUCCUCUCUGGAUUCCUCGUCACUCAGCAGGACAUCUCUGAGAGAAAUGCC, for which the self-cleavage is 0.04. Take UACGUAGGUGGUUUUCCCCUGAUAGUGCUAAGGGGGCCUGGAAGUUUGGACUGGGCAGAGCUCAACACAGCGUGGCAAAGUGGCUGUGGCUAGACUUCCUCUCAGGAUUCCUCGUCACUCAGCAGGGCAUCUCUGAGAGAAAUGCC: the self-cleavage came to 0.02. The result for UACGUAGGUGGUUUUCCCCUGAUAGUGCUAAGGGGGCCUGGAAGUUUGGACUGGGCAGAGCUCAACACAGCGUGGCAAAGUGGCUGUGGCUAGACUACCUCUCUGGAUUCCUCGUCACUCAGCAGGGCAUCUCUGAGAGAAACGCC reads 0.16; that for UACGUAGGUGGUUUUCCCCUGAUAGUGCUAAGGGGGCCUGGAAGUUUGGACUGGGCAGAGCUCAACACAGCGUGGCAAAGUGGCUGUGGCUAGACUCCCUCUCUGGAUUCCUCGUCACUCAGCAGGGCAUCUCUGAGAGAAAUGCC, 0.19.

As for UACGUAGGUGGUUUUCCCCUGAUAGUGCUAAGGGGGCCUGGAAGUUUGGACUGGGCAGAGCUCAACACAGCGUGGCAAAGUGGCUGUGGCUAGACUUCCUCUCUGGAUUCCUCGUCACUCAGCAGGGCAUCUCUGAGAGAAAUGCC, the self-cleavage stood at 0.06. Consider UACGUAGGUGGUUUUCCCCUGAUAGUGCUAAGGGGGCCUGGAAGUUUGGACUGGGCAGAGCUCAACACAGCGUGGCAAAGUGGCUGUGGCUAGACUUCCUCUCUGGAUUCCUCGUCACUCAGCAGGGCAUCUCUGAGAGGAAUGCC, for which the self-cleavage amounted to 0.07. For the variant UACGUAGGUGGUUUUCCCCUGAUAGUGCUAAGGGGGCCUGGAAGUUUGGACUGGGCAGAGCUCAACACAGCGUGGCAAAGUGGCUGUGGCUAGACUCCCUCCCUGGAUUCCUCGUCACUCAGCAGGGCAUCUCUGAGAGAAAUGCC, the self-cleavage came out at 0.14.

Turning to UACGUAGGUGGUUUUCCCCUGAUAGUGCUAAGGGGGCCUGGAAGUUUGGACUGGGCAGAGCUCAACACAGCGUGGCAAAGUGGCUGUGGCUAGACUGUCUCUCUGGAUUCCCCGUCACUCAGCAGGGCAUCUCUGAGAGAAAUGCC, the self-cleavage came out at 0.26. The result for UACGUAGGUGGUUUUCCCCUGAUAGUGCUAAGGGGGCCUGGAAGUUUGGACUGGGCAGAGCUCAACACAGCGUGGCAAAGUGGCUGUGGCUAGACUGACUUUCUGGAUUCCUCGUCACUCAGCAGGGCAUCUCUGAGAGAAAUGCC reads 0.09; that for UACGUAGGUGGUUUUCCCCUGAUAGUGCUAAGGGGGCCUGGAAGUUUGGACUGGGCAGAGCUCAACACAGCGUGGCAAAGUGGCUGUGGCUAGACUGUCUCUCUGGAUUCCUCGUCACUCAGCAGGGCAUCUCUGAGAGAGAUGCC, 0.45. As to UACGUAGGUGGUUUUCCCCUGAUAGUGCUAAGGGGGCCUGGAAGUUUGGACUGGGCAGAGCUCAACACAGCGUGGCAAAGUGGCUGUGGCUAGACUACCUCUCUGGAUUCCUCGUCACUCAGCAGGGCAUCUCUGAGAGGAAUGCC, the self-cleavage amounted to 0.11. The result for UACGUAGGUGGUUUUCCCCUGAUAGUGCUAAGGGGGCCUGGAAGUUUGGACUGGGCAGAGCUCAACACAGCGUGGCAAAGUGGCUGUGGCUAGACUACCUCUCUGGAUUCCACGUCACUCAGCAGGGCAUCUCUGAGAGAAAUGCC reads 0.16; that for UACGUAGGUGGUUUUCCCCUGAUAGUGCUAAGGGGGCCUGGAAGUUUGGACUGGGCAGAGCUCAACACAGCGUGGCAAAGUGGCUGUGGCUAGACUGGCUCUCUGGAUUCCCCGUCACUCAGCAGGGCAUCUCUGAGAGAAAUGCC, 0.12; that for UACGUAGGUGGUUUUCCCCUGAUAGUGCUAAGGGGGCCUGGAAGUUUGGACUGGGCAGAGCUCAACACAGCGUGGCAAAGUGGCUGUGGCUAGACUCCCUCUCUGGAAUCCUCGUCACUCAGCAGGGCAUCUCUGAGAGAAAUGCC, 0.14. As for UACGUAGGUGGUUUUCCCCUGAUAGUGCUAAGGGGGCCUGGAAGUUUGGACUGGGCAGAGCUCAACACAGCGUGGCAAAGUGGCUGUGGCUAGACUGUCUCUCUGGAUUCCUCGUCACUCUGCAGGGCAUCUCUGAGAGAAAUGCC, the self-cleavage was 0.38. The result for UACGUAGGUGGUUUUCCCCUGAUAGUGCUAAGGGGGCCUGGAAGUUUGGACUGGGCAGAGCUCAACACAGCGUGGCAAAGUGGCUGUGGCUAGACUGUCUCUCUGGAUUCCUCGUCACUCGGCAGGGCAUCUCUGAGAGAAAUGCC reads 0.44; that for UACGUAGGUGGUUUUCCCCUGAUAGUGCUAAGGGGGCCUGGAAGUUUGGACUGGGCAGAGCUCAACACAGCGUGGCAAAGUGGCUGUGGCUAGACUGUCGCUCUGGAUUCCUCGUCACUCAGCAGGGCAUCUCUGAGAGAAAUGCC, 0.05. Regarding UACGUAGGUGGUUUUCCCCUGAUAGUGCUAAGGGGGCCUGGAAGUUUGGACUGGGCAGAGCUCAACACAGCGUGGCAAAGUGGCUGUGGCUAGACUGUCUCUCUGGAUUCCUCGUCACUCAGCAGGGCAUCUCUGGGAGAAAUGCC, the self-cleavage is 0.55. The result for UACGUAGGUGGUUUUCCCCUGAUAGUGCUAAGGGGGCCUGGAAGUUUGGACUGGGCAGAGCUCAACACAGCGUGGCAAAGUGGCUGUGGCUAGACUGACUCUCUGGAUUCCCCGUCACUCAGCAGGGCAUCUCUGAGAGAAAUGCC reads 0.05; that for UACGUAGGUGGUUUUCCCCUGAUAGUGCUAAGGGGGCCUGGAAGUUUGGACUGGGCAGAGCUCAACACAGCGUGGCAAAGUGGCUGUGGCUAGACUACCUCUCUGGAUUCCUCGUCACUCAGCAGGGCAUCUCGGAGAGAAAUGCC, 0.06. The result for UACGUAGGUGGUUUUCCCCUGAUAGUGCUAAGGGGGCCUGGAAGUUUGGACUGGGCAGAGCUCAACACAGCGUGGCAAAGUGGCUGUGGCUAGACUUCCUCUCUGGAUUCCUCGUCACUCAGUAGGGCAUCUCUGAGAGAAAUGCC reads 0.03; that for UACGUAGGUGGUUUUCCCCUGAUAGUGCUAAGGGGGCCUGGAAGUUUGGACUGGGCAGAGCUCAACACAGCGUGGCAAAGUGGCUGUGGCUAGACUGACUCUCUGGAUUCCUCGUCACUCAGCAGGGCAUCUCUGAGAGGAAUGCC, 0.12. The result for UACGUAGGUGGUUUUCCCCUGAUAGUGCUAAGGGGGCCUGGAAGUUUGGACUGGGCAGAGCUCAACACAGCGUGGCAAAGUGGCUGUGGCUAGACUACCUCUCUGGAUUCUUCGUCACUCAGCAGGGCAUCUCUGAGAGAAAUGCC reads 0.07; that for UACGUAGGUGGUUUUCCCCUGAUAGUGCUAAGGGGGCCUGGAAGUUUGGACUGGGCAGAGCUCAACACAGCGUGGCAAAGUGGCUGUGGCUAGACUUCCUCUCUGGACUCCUCGUCACUCAGCAGGGCAUCUCUGAGAGAAAUGCC, 0.06.

As for UACGUAGGUGGUUUUCCCCUGAUAGUGCUAAGGGGGCCUGGAAGUUUGGACUGGGCAGAGCUCAACACAGCGUGGCAAAGUGGCUGUGGCUAGACUGACUCUCUGGAUUCCUCGUCACUCAGCAGGGCAUCUCUGAGAGAGAUGCC, the self-cleavage is 0.17. The result for UACGUAGGUGGUUUUCCCCUGAUAGUGCUAAGGGGGCCUGGAAGUUUGGACUGGGCAGAGCUCAACACAGCGUGGCAAAGUGGCUGUGGCUAGACUACCUCUCUGGAUCCCUCGUCACUCAGCAGGGCAUCUCUGAGAGAAAUGCC reads 0.05; that for UACGUAGGUGGUUUUCCCCUGAUAGUGCUAAGGGGGCCUGGAAGUUUGGACUGGGCAGAGCUCAACACAGCGUGGCAAAGUGGCUGUGGCUAGACUACCUCUCUGGAUACCUCGUCACUCAGCAGGGCAUCUCUGAGAGAAAUGCC, 0.07.

Consider UACGUAGGUGGUUUUCCCCUGAUAGUGCUAAGGGGGCCUGGAAGUUUGGACUGGGCAGAGCUCAACACAGCGUGGCAAAGUGGCUGUGGCUAGACUACCCCUCUGGAUUCCUCGUCACUCAGCAGGGCAUCUCUGAGAGAAAUGCC, for which the self-cleavage stood at 0.33.

UACGUAGGUGGUUUUCCCCUGAUAGUGCUAAGGGGGCCUGGAAGUUUGGACUGGGCAGAGCUCAACACAGCGUGGCAAAGUGGCUGUGGCUAGACUACCACUCUGGAUUCCUCGUCACUCAGCAGGGCAUCUCUGAGAGAAAUGCC: the self-cleavage is 0.1.

As for UACGUAGGUGGUUUUCCCCUGAUAGUGCUAAGGGGGCCUGGAAGUUUGGACUGGGCAGAGCUCAACACAGCGUGGCAAAGUGGCUGUGGCUAGACUGUCUCUCUGGAUUCCUCGUCACUCAGCAGGGCAUCUCUGAGAGAAAUGCU, the self-cleavage is 0.32. The result for UACGUAGGUGGUUUUCCCCUGAUAGUGCUAAGGGGGCCUGGAAGUUUGGACUGGGCAGAGCUCAACACAGCGUGGCAAAGUGGCUGUGGCUAGACUGUCUCUCUGGACUCCUCGUCACUCAGCAGGGCAUCUCUGAGAGAAAUGCC reads 0.48; that for UACGUAGGUGGUUUUCCCCUGAUAGUGCUAAGGGGGCCUGGAAGUUUGGACUGGGCAGAGCUCAACACAGCGUGGCAAAGUGGCUGUGGCUAGACUGUCUCUCUCGAUUCCUCGUCACUCAGCAGGGCAUCUCUGAGAGAAAUGCC, 0.75. The result for UACGUAGGUGGUUUUCCCCUGAUAGUGCUAAGGGGGCCUGGAAGUUUGGACUGGGCAGAGCUCAACACAGCGUGGCAAAGUGGCUGUGGCUAGACUACCUCUCUGGAUUCCUCGUCACUCAGCAGGGCAUCCCUGAGAGAAAUGCC reads 0.11. In the case of UACGUAGGUGGUUUUCCCCUGAUAGUGCUAAGGGGGCCUGGAAGUUUGGACUGGGCAGAGCUCAACACAGCGUGGCAAAGUGGCUGUGGCUAGACUGACUCCCUGGAUUCCUCGUCACUCAGCAGGGCAUCUCUGAGAGAAAUGCC, the self-cleavage came out at 0.13. The result for UACGUAGGUGGUUUUCCCCUGAUAGUGCUAAGGGGGCCUGGAAGUUUGGACUGGGCAGAGCUCAACACAGCGUGGCAAAGUGGCUGUGGCUAGACUGUCUCUCUGGAUUCCUCGUCACUCAGCAGGGCAUCUCUGAGAGAAUUGCC reads 0.47; that for UACGUAGGUGGUUUUCCCCUGAUAGUGCUAAGGGGGCCUGGAAGUUUGGACUGGGCAGAGCUCAACACAGCGUGGCAAAGUGGCUGUGGCUAGACUACCUCUCUGGAUUCCUCGUCACUCAGCAGGGCAUCUCUGAGAGAACUGCC, 0.14; that for UACGUAGGUGGUUUUCCCCUGAUAGUGCUAAGGGGGCCUGGAAGUUUGGACUGGGCAGAGCUCAACACAGCGUGGCAAAGUGGCUGUGGCUAGACUACCUCUCUGGAUUCCUCGUCACUCAGCAGGGCAUCUCUGAGAGAAGUGCC, 0.02. The result for UACGUAGGUGGUUUUCCCCUGAUAGUGCUAAGGGGGCCUGGAAGUUUGGACUGGGCAGAGCUCAACACAGCGUGGCAAAGUGGCUGUGGCUAGACUUCCUCUCUGGAUUCCUCGUCACUCAGCAGGGCAUCUCUGAGAGAAAUGUC reads 0.04; that for UACGUAGGUGGUUUUCCCCUGAUAGUGCUAAGGGGGCCUGGAAGUUUGGACUGGGCAGAGCUCAACACAGCGUGGCAAAGUGGCUGUGGCUAGACUGUCUCUCUGGAUUCCUCGUCACUCAGCAGGGCAUCUCUGAGGGAAAUGCC, 1.15.
